Like-named read-outs stand apart in the source and are kept apart here.
Columns and labels:
SLBP (HBP), His-tagged [1] = biological target: T1, SLBP (HBP), His-tagged (human, UniProt Q14493 1-270); experiment: competition
SLBP (HBP), His-tagged [2] = biological target: T1, SLBP (HBP), His-tagged; experiment: competition; remark: listed apart in the source

## GGAGCUCAACAAAACCGGAAAGCCUUCCGGACCC (structured_RNA) [mutated stem-loop competitor (*)]
SLBP (HBP), His-tagged [1]
  binding result: no binding

## GGAGCUCAACAAAAGGCCCUUUUCAGGGCCACCC (structured_RNA) [wild-type stem-loop competitor]
SLBP (HBP), His-tagged [2]
  binding result: binds

Source: publication PMC1635294
